The target of one test is T1, TbPex3 (Trypanosoma brucei, UniProt Q383Q3).
T1 construct: gene Tb11.01.2020; MBP fusion to TbPex3 (with 6 × His-TbPex19), recombinant from E. coli; with TbPex19
Nature of the test: pull-down and MST with purified MBP-TbPex3 and NT-647-labeled His-TbPex19; inhibition of protein-protein interaction. It counts as binding.

Test [1] deals with His-HsPex19 (human) (UniProt P40855). The experiment in a line: MST; Monolith NT.115; MBP-Pex3 (0–2.5 μM) titrated into 100 nM NT-647-labeled His-Pex19; 50 mM Tris–HCl, pH 7.4, 150 mM NaCl, 10 mM MgCl2, 0.05% Tween-20.
Test [2] shares this target. The experiment in a line: MST; Monolith NT.115; 100 nM each of NT-647-labeled His-Pex19 and MBP-Pex3 with DMNQ titrated from 3 nM to 100 μM; apparent.
In test [3] the target is His-TbPex19 (T. brucei). Nature of the test: MST; Monolith NT.115; MBP-Pex3 (0–2.5 μM) titrated into 100 nM NT-647-labeled His-Pex19; 50 mM Tris–HCl, pH 7.4, 150 mM NaCl, 10 mM MgCl2, 0.05% Tween-20.
Test [4] concerns the target His-TbPex19 (T. brucei). The experiment in a line: MST; Monolith NT.115; 100 nM each of NT-647-labeled His-Pex19 and MBP-Pex3 with DMNQ titrated from 3 nM to 100 μM; apparent.

Sequence of His-HsPex19 (human) (P40855 whole entry): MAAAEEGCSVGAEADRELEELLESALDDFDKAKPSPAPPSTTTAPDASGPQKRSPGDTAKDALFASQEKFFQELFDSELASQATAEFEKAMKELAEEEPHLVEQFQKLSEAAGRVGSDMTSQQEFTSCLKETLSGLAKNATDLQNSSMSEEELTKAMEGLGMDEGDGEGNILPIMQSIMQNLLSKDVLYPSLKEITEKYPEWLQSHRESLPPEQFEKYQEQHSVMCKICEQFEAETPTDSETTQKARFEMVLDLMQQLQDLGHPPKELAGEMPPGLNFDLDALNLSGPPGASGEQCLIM

Regarding `COC1=C(OC)C(=O)c2ccccc2C1=O` [2,3-dimethoxy-1,4-naphthoquinone], the “pull-down and MST with purified MBP-TbPex3 and NT-647-labeled His-TbPex19; inhib” value at TbPex3 is 39.6 ± 0.86 µM.
In turn, “MBP-HsPex3 (from UniProt P56589 1-373) (natural protein)” returned a Kd with His-HsPex19 (human) [1] of 4.37 nM. In the test with His-HsPex19 (human) [2], the KD with DMNQ titrated in was 14.5 nM.
In the case of MBP-TbPex3 (natural protein), the Kd in the test with His-TbPex19 (T. brucei) [3] is 3.8 nM. Further, the apparent KD with DMNQ titrated in with His-TbPex19 (T. brucei) [4] turned out to be 39600 nM.

The Kd is the constant that tells how readily two partners part at equilibrium. Read a low Kd as higher affinity.

(Values after article PMC8326762, “A Small Molecule Inhibitor of Pex3–Pex19 Interaction Disrupts Glycosome Biogenesis and Causes Lethality in Trypanosoma brucei” (Frontiers in Cell and Developmental Biology, 2021).)
